Reference: publication doi:10.1101/2022.06.15.496202

Molecular target: Cas7c (D. vulgaris)
Experiment: cryo-EM structure

Q: Which stoichiometry N does the source give for Cas7c (natural protein) here?
A: 7
